Square brackets hold non-standard residues; d marks the D form. Ends that are not written are not given here. pY = N[C@@H](Cc1ccc(OP(=O)(O)O)cc1)C(=O)O
Assays:
[1] = biological target: T1, Csk L-SH2 domain (A73–A178), reduced form (human, UniProt P41240 73-178); assay: other fluorescence titration; intrinsic tryptophan fluorescence of L-SH2 (typically 5 μmol/L) titrated with Cbp peptide; 25 °C, 3 mL of 50 mmol/L Tris-HCl pH 7.5; excitation 288 nm, emission 320 nm; conditions: both partners purified
T1 construct: C-terminal Src kinase (Csk), human, SH2 domain with part of the SH3-SH2 linker, residues A73-A178; C122 and C164 as free thiols; Cloned into pTWIN1 as described in Liu et al. 2009; 15N/13C-labelled for the NMR experiments; PDB 3EAC is the oxidized form of the same construct; also called reduced SH2; reduced L-SH2; source: E. coli BL21 (DE3) RIL, purified (chitin beads, intein cleaved with 50 …)
T1 sequence (looked up): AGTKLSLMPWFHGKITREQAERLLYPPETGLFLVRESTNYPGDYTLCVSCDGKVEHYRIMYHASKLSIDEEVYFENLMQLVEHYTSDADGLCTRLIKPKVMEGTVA

[2] = biological target: T2, Csk L-SH2 domain (A73–A178), oxidized form (human, UniProt P41240 73-178, disulfide bond C122–C164); assay: as above; conditions: both partners purified
T2 construct: C-terminal Src kinase (Csk), human, SH2 domain with part of the SH3-SH2 linker, residues A73-A178; intramolecular disulfide bond between C122 and C164; Same polypeptide as m1, differing only in the C122–C164 disulfide bond; also called oxidized SH2; oxidized L-SH2; source: E. coli BL21 (DE3) RIL, purified (chitin beads, intein cleaved with DTT, Mono Q); oxidized by exposure to air for about a …
T2 sequence (looked up): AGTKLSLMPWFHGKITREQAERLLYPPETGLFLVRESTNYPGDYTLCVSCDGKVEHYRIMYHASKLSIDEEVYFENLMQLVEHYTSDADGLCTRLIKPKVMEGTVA

B1: Cbp phosphopeptide ISAMpYSSVNK (peptide)
peptide: ISAM[pY]SSVNK
notes: also called Cbp peptide; Cbp-phosphorylated peptide; source: synthetic peptide (GenScript, solid-phase synthesis)
- Kd [1]: 520 ± 50 nM
- Kd [2]: 990 ± 80 nM

Reference: paper PMC5071372, “Combining biophysical methods to analyze the disulfide bond in SH2 domain of C-terminal Src kinase” (Biophysics Reports, 2016)
